Experimental findings from the nanobody polyreactivity screen of Harvey et al. (2022) are described below.

A short description of this data set: yeast display, Sf9 membrane polyspecificity reagent, FACS + sequencing; frameworks hold sequencing errors. The gist of the method: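 A synthetic nanobody library was expressed on Saccharomyces cerevisiae BJ5465 by galactose induction for 36–48 hours. The library was stained for 1 hour at 4 °C with 10% biotinylated, detergent-solubilized Sf9 membrane reagent and enriched with streptavidin microbeads before FACS. Low and high (top ~1%) gates were set on anti-HA fluorescence for expression and streptavidin fluorescence for reagent binding, and each polyreactivity label reflects the gate of origin.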
In the case of “QVQLVESGGGIVQAGGSLRLSCAASGTFVYYAMVMYRQPPGKERELVAGISDGSSTNYADSVKGRFTISRDNAKNTVYLQMNSLKPEDTAVYYCAKRYYSSGREHGYWGQGTQVTVSS”, the “polyreactivity (PSR sort gate)” value was “low polyreactivity”. As for “QVQVVESGGGLDQAGGSLGLSCAASGSIFIKYAMGWSRQAPRKERELVAAISRRGGSPYYADSVKGRFTISRDNAKNTVYLQMISLKPEDTAVYYCAAVNISFGYADRFYYVYRGDYWGQGTQVTVSS”, the “polyreactivity (PSR sort gate)” value was “high polyreactivity”.

For “QVQHVQSGGGLVQAGGSLRLSCAASGYIFWSYEIGGYRQAPGKERELDATITSGDSTYYADSVKGRFTISRDNAKNTVYLQMKSLKPEDTALDYCAACTYYRLTYWLREYDYSGQGTQVTVSS”, the “polyreactivity (PSR sort gate)” value is “low polyreactivity”.

“QVQLVESGGGLVQAGGSLRLSCAASGFIFGDYAMGWYRQAPGKERELVAAISRSGGRTYYADSVKGRFTISRDNAKNTVYLQMNSLKPEDTAVYDCAKSCLNIYDYWGQVTQVTVSS”: the “polyreactivity (PSR sort gate)” value is listed as “high polyreactivity”.

“QVQLVESGGGLVQAGGSLRLSCAASGSIFYVYAMGWYRQSPGKERELVAAITSSGTTNYADSVKGRFTISRDNAKNTVYLLMNSLKPEDSAVYYCAADPDSGHVRFDYWGQGTQVTVSS”: the “polyreactivity (PSR sort gate)” value is given as “low polyreactivity”. For “QVQLVESGGGLVQAGGSLRLSCAASGSIFDYYAMGWDRQAPGKERELVAAISWSGGSTYYADSVKGRFTISRDNAKNTVYLHMNSLNPEDTAVYYCAADEYDYYHSRWYEYWGQGTQVTVSS”, the “polyreactivity (PSR sort gate)” value was “high polyreactivity”. The result for “QVQLVESGGGLFQAGGSLRLSCAASGIIFVRNAMGWSRQAPGKERELVAAITPSGGSTYYADSVKGRFTISRDNAKNTVYLQMNSLKPEDTAVYYCAAPYRYRSLYDNWGQGSQVTVSS” reads “high polyreactivity”; that for “QVQLVESGGGLVQAGGSLRLSCAASGGTFPQFAMGWYRQAPGKEREFVADITSRGGTTYYADSVKGRFTISRDNAKNTVYLQMNSLKPEDTAVYYCAADNPADWWGLDYWGQGTQVTVSS”, “low polyreactivity”; that for “QVQLQESGSGLVQAGGSLRLSSAASGNISHYNDMGWYRQAPGKEREPVATINSGSITYYADSVKGRFTISRDNAKNTVYLQMNSLKPEDTAVYYCAVTQHGYFYLDYWGQGTQVTVSS”, “high polyreactivity”. The result for “QVQLVETGGGLVHAGGSLRLSSAASGRTFVENDMGWYRQAPGKERELVAAITYRGGRTFYADSVKGSFTISRDNAKNTVYLQMNSRKPEDTAVYSCNAVRRTGGHGVYWGQGTQVTVSS” reads “high polyreactivity”. On to “QVQLVESGGGLVQAGGSLRLSCAASGSIFYAYAMGWYRQAPGKERELVAAISASGGSTYYADSVKGRFTISRDNAKNTVYLQMNSLKPEDTAVYYCAALTYSTYQTAYRRYPKNKYWGQGTQVTVSS”, for which the “polyreactivity (PSR sort gate)” value was “high polyreactivity”. The result for “QVQLVESGGGLVQAGGSLRLSCAASGFTFPYYAMGWYRQAPGKERELVAAINSVGSTYYADSVKGRFTISRDNAKNTVYLQMNSLKPEDTAVYYCNKRPSHWRHYIMDYWGQGTQVTVSS” reads “high polyreactivity”; that for “QVQLVESGGGLVQAGGSLRLSCAASGRTFNYYAMGWYRQAPGKERELVAAISWSGTPTYYADSVKGRFTISRDNAKNTVYLQMNCLKPEDTAVYYCAAYLVSYPRGNYIRYDYWGQGTQVTVSS”, “low polyreactivity”. Turning to “HVQLQESGGGLVQAGGSLRLSCAASGSIFQATYMGWYRQAPGKEREFVASITYGSITNYADSVKGRFTIGRDNAKDTLYLQMNSLKPEDTAVYYCAVDRHYIPAFHYWGQGTEVTVSS”, the “polyreactivity (PSR sort gate)” value was “low polyreactivity”. As for “QVQLVESVVGLVQAGGSLRLICAASGIIISRYAMECYRQAPGKERELVAAITRSGGDTYYADSVKGRFTISRDNAKNTVYLQMNSLKPEDTAVYYCAASSSWYEDHDYWGQGTQVTVSS”, the “polyreactivity (PSR sort gate)” value is “low polyreactivity”. Under “QVQLVESGGGLVQAGGSLRLSCAASGRTFRYYAMGWYRQAPGKERELVASITGSGGSTTYADSVKGRFTISRDNAKNTVYLQMNSLKPEDTAVYYCAVRYPYYSYRAKLGYWGQGTQVTVSS” stands “high polyreactivity”; under “QVQLVESGGGLVQAGGSLRLSCAASGSNFRRNAMGWYRQAPGKERELVAAINSRGGSTYYADSVKGRFTISRDNAKNTVYLQMNSLKPEDTAVFYCATARFLRYDRYDDYWGQGTQVTVSS”, “low polyreactivity”; under “QVQLVESGGGLVQAGGSLRLSCAASGLFARNAMGWYRQAPGKERELVAAINRSGGSTYYADSVKGRFTISRDNAKNTVYLQMNSLKPEDTAVYYCNKAFTHTKYLSPIAYEYGYWGQGTQVTVSS”, “low polyreactivity”. As for “QVKLVESGGGLVQAGGSLRLSCAASGITFGYNAMGWDRQAPGKERELVAAITGGSTYYADSVKGRFTISRDNAKNTFYLQMNSLKPEDSAVYYCATDPRRFWVIYYYWGQGTQVTVSS”, the “polyreactivity (PSR sort gate)” value is on record as “low polyreactivity”. The result for “QVQLVESGGGLVQAGGSLRLSCAASGSTISGYAMGWYRQAPGKERELVATISRGGSTNYADSVKGRFTISRDNAKNTVYLQMNSLKPEDTAVYNCAAQTYVWWVKYHSWGQGTQVTVSS” reads “low polyreactivity”; that for “QVQLVESGGGLVQAGGSLRLSCAASGFNFYDYTMGWYRQAPGKERELVAAISWSGGSTYHADSVKGRFTISRDTAKNTVYLQMNSLKPEDTAVYYCNADYGYYKSGYGFDYWGQGTKVTVSS”, “low polyreactivity”. As to “QVQLVESGGGLVQAGGSLRLSCAASGRIFYPYAMGWYRQAPGKERELVAAISRSGGSTYYADSVKGRFTISRDNAKNTVYLQMNSLKPEDTAVYYCAAEVVYFYSDAHIGYVDYEYWGQGTQVTVSS”, the “polyreactivity (PSR sort gate)” value is listed as “low polyreactivity”. The result for “QVQLVESGGGLVQAGGSLRLSCAASGFTFERYTMGWYRQAPGKEREMVATISRRSGRTSYADSVKGRFTISRDYAKNTVYLQMNRLQPEDTAVYYCAVDDAYPDRYDYWGQGTQVTVSS” reads “high polyreactivity”; that for “QVQLVESGGGLVQAVGSLRLSCAASGSTTFYAMGSYRQAPRKEWELVATISSSAGSTYYADSVKGRFTISRDNAKNTVFFQMNSLKPEDTAVFYCNAADAVSDYPDFHIYDYWGQGTQVTVSS”, “low polyreactivity”. Under “QVQLVESGGGLVQEGGILPLSCAASGFIFGDYVMGWYRQAPGKERELVAAINRNGGRTYYADSVKGRFTISRDYAKNTVYLQMNSLKPEDTAVFYCAAVFRSDRYHWYYYWGQGTQVTVSS” stands “high polyreactivity”. The result for “QVQLAESGGGLVQAGGSLRLSCAASGSILFNMGWYRQAPGKERELVAAIRYGGGRTYYADSVKGRFTISRDNAKNTVYLQMNSLKPEDTAVYYCAAPYKRNAGFDYWGQGTQVTVSS” reads “low polyreactivity”; that for “QVQLVESGGGLVQAGGSLRLSCAASGRIFKRYTMGWYRQAPGKERELVAGITFSGGSTYYADSVKGRFTISRDNAKNTVYLQMHSLKPEDTAVYDCNARVPPQGWGPWKAFDYWGQGTQVTVSS”, “low polyreactivity”. Consider “QVQLVESGGGLVQAGGSLRLSCAASGLIFPRYTMGWYRQAPGKERELVAAIRGTGGSTYYADSVKGRFTISRDNAKNTVYLQMNSLKPEDTAVYYCATRGKSHGQQFNYWGQGTQVTVSS”, for which the “polyreactivity (PSR sort gate)” value is “high polyreactivity”.

For the sequence “QDQLVESGGGLVQAGGSLRLSCAASGRIFGLYAMGCYRPAPGKERELVAAYADSVKGRFTISRDNAKNTVYLQMNSLKPEDTAVYYCAKGPLYAGYSIHLRDFNYWGQGTQVTVSS”, the “polyreactivity (PSR sort gate)” value is on record as “low polyreactivity”. Under “QVQLVESGGGLVQAGGSLRLSCAASGLIFWKYAMGWYRQAPGKEREFVAAITYGGGGTYYADSVKGRFTISRDNAKNTVYFQMNSLKPEDTAVYYWAKRRYYYKGRVSYRQYGYWGQGTQVTVSS” stands “high polyreactivity”; under “QVQLVESGGGLVQAGGSLSLSCAATGINYGDYAMGWYRQAPGKERELVAAISSDTSTNYADSVKGRFTISRDNAKNTVYLQMNSLKPEDTAVYECAAEGSYYGWYQGFDYWGQGTQVTVSS”, “low polyreactivity”. Turning to “QVQLVESGGGLVQAGRSLRLSCASSGRIFSSYAKGWYRQAPGKERELVAAITSGGSTDYADSVKGRFTISRDNAKNTVYLQIYRLNPEDTAVYYCAKAFLPPWTYSPYYLFYYWGQGTQVTVSS”, the “polyreactivity (PSR sort gate)” value was “low polyreactivity”. On to “QVQLVESGGGLVQAGGSLRLSSAASGSTFRFNAMGWYRQAPGKERELVATISSGGRTYYADSVKGSFTISRDNAKNTVYLQMNSLKPEDTAVYYCAARTGYFLGRFDYWGQGTQVTVSS”, for which the “polyreactivity (PSR sort gate)” value is on record as “high polyreactivity”.

Take “QVQLVESGGGLVQAGGSLRLSCAASGSTFYYNAMGWYRQAPGKERELVAGISGGGSTNYADSVKGRFTISRDNAKNTVYLQMNSLKPEDTAVYYCAARERYRGAIGYDYWGKGTQVTVSS”: the “polyreactivity (PSR sort gate)” value is “low polyreactivity”. Under “QVQLVESGGGLVQAGGSLRLSCAASGRIFYLKVMGWYRQEPGKERELVAAITRRDVTTYADSVKGRFTISRDNAKNTVYLQMNSLKPEDTAVYYCNADSPSLSGDYWGQGTQVTVSS” stands “low polyreactivity”. For the sequence “QVQLVESGGGLVQAGGSLRLSCAASGFTFYLYTMGWYRQAPGKERELVAAISWRGGGTYYADSVKGRFTISRDNAKNTVYLQMNSLKPEDTAVYYCATVRTYARNDYWGQGTQVTVSS”, the “polyreactivity (PSR sort gate)” value is on record as “high polyreactivity”. For the sequence “QVQHVETGGGLVQAGGSLRLSCAASGLAFAMGWYSQAPGTERELVASITGSGDSTYYADSVKGRFTISRDNAKNTVYLQMNSQKPEDTAVYYCGARTYYNYAPRYYYWGQGTQVTVSS”, the “polyreactivity (PSR sort gate)” value is recorded as “low polyreactivity”. The result for “QLQLVDSGGGLVQAGGSLRLSCAASGSIFGAYAMGWYRHAPGKERELVAAINYGGATTYYADSVKGRFTISRDNAKNTVYLQMNSLIPEDTAVYYCAADYLYAYGDVADVYGWYAYYYWGQGTQVTVSS” reads “low polyreactivity”; that for “QVQLVESGGGLVQAGGSLRLSCAASGSTFRTNVMGWYRQAPGKERELVAAITKRGSITYYADSVKGRFTISRDNAKNTVYLQMNSLKPEDTAVYYCAARKVAVRGYGYWGQGTQVTVSS”, “high polyreactivity”; that for “QVQLVESGGGLVQAGGSLRLSCAASGYTFDAYAMGWYRQAPGKERELVAAISGDSTNYADSVKGRFTISRDNAKNTVYLQMNSLKPEDTAVYYCAAAFWYDYWEKYDYWGQGTQVTVSS”, “low polyreactivity”. Take “HVQLVESGGGLVQAGGSLRLSCAASGFTFARYAMGWYRQAPGKERDLVATITRSGDSTNYADSVKGRFTISRDNAKNTVYLQMNSLKPEDTAVYYCNRRYPIWYRTMNYWGQGTQVTVSS”: the “polyreactivity (PSR sort gate)” value is given as “high polyreactivity”.
